# Patent US20250289871A1
# B1: RQ43-GL-H-LO1 (TM-YTE) (antibody, V domains shown)
# VH: EVQLVESGGGLVQPGRSLRLSCAASGFPFDDYAIHWVRLAPGKGLEWVSSISWDSGSIGYADSVKGRFTISRDNAKNSLYLQMNSLRAEDTALYYCAKGAFPGYSSGWYYGLEVWGQGTTVTVSS
# VL: QSVVTQPPSASGSLGQSVTISCTGTSSDVGGYNYVSWYQQHPGKAPKLMIFEVSKRPSGVPDRFSGSKSGNTASLTVSGLQAEDEADYYCSSYAGNKGVFGGGTKLTVL
# Target: SARS-CoV-2 Delta + T51I + T95I spike protein (authentic virus) (SARS-CoV-2), P0DTC2
# Assay: cell-based or functional assay
binder,measurement,value
B1,Authentic Virus Neutralization IC50,0.021 µg/mL
